The values that follow come from publication PMC9536298.

For assay [1], the target named is survival motor neuron protein (SMN), endogenous human (human (endogenous in human fibroblasts)) (UniProt Q16637). Description: co-IP.
In assay [2] the target is zinc finger protein ZPR1, endogenous human (human (endogenous in HeLa and human fibroblasts)) (UniProt O75312). Description: co-IP.
Chain of zinc finger protein ZPR1, endogenous human (human (endogenous in HeLa and human fibroblasts)) (O75312 whole entry): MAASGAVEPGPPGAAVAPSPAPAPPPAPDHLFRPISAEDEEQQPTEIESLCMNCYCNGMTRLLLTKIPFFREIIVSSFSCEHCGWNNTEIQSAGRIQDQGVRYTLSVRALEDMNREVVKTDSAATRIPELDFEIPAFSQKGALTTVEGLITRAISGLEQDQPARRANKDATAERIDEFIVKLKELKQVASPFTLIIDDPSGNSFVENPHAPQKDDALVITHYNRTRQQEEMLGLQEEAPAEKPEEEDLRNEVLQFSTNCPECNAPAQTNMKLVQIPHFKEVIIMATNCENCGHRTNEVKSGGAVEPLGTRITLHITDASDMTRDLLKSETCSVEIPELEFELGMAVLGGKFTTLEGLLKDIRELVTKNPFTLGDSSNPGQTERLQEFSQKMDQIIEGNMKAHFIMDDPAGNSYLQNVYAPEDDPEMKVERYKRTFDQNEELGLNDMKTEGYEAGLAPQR

Chain of survival motor neuron protein (SMN), endogenous human (human (endogenous in human fibroblasts)) (Q16637 whole entry): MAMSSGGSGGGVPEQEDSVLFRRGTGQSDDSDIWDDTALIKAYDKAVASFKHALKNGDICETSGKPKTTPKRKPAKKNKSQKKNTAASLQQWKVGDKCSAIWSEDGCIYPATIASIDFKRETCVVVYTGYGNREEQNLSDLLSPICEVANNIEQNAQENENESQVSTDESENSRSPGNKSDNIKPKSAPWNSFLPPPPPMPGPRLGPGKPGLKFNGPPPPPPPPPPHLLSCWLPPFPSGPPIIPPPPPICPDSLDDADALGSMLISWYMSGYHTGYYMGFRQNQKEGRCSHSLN

Substance “senataxin (SETX), endogenous human, Q7Z333 1-2677” gave a co-IP level with SMN in SMA cells, % of normal cells in assay [1] of 25.8%. The substance also registered a co-IP level with ZPR1 in SMA cells, % of normal cells in assay [2] of 44.8%.
